B1: KRT18 (parent)
chain: KSQDLAKIMADIRAQYDELARKNR

Variants of: B1
Assay: protein stability index of a GFP-peptide fusion (GPS, HEK-293T) (PSI 1-6); higher = more stable
Conditions: c terminus: a fixed tail appended
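Further: lentivirally expressed fusions sorted by FACS into six bins by GFP to DsRed ratio, PSI derived from sequencing read proportions per bin multiplied by bin number.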

| Variant | protein stability index |
| --- | --- |
| A10K | 2.91 |
| A10Y | 2.51 |
| A10G | 3.81 |
| A10L | 2.68 |
| A10Q | 2.89 |
| A10H | 2.75 |
| A10F | 2.41 |
| L5G | 4.49 |
| L5A | 3.72 |
| L5F | 2.45 |
| L5H | 3.83 |
| L5V | 3.24 |
| L5W | 2.62 |
| A6C | 2.66 |
| A6N | 3.01 |
| A6L | 2.65 |
| A6K | 2.28 |
| A6D | 2.8 |
| A6H | 2.71 |
| D11Y | 1.7 |
| D11S | 2.21 |
| D11Q | 2.96 |
| D11H | 2.71 |
| D11C | 1.73 |

| Variant | protein stability index |
| --- | --- |
| N23M | 2.02 |
| N23T | 2.88 |
| N23D | 3.86 |
| N23V | 3.04 |
| N23H | 2.56 |
| N23P | 3.52 |
| N23Y | 1.94 |
| K22N | 2.7 |
| K22F | 2.43 |
| K22M | 2.44 |
| K22T | 2.45 |
| K22Q | 2.92 |
| K22D | 3.35 |
| K22R | 2.79 |
| K22E | 3.04 |
| K1P | 3.03 |
| K1N | 2.6 |
| K1M | 2.81 |
| K1D | 2.05 |
| K1G | 2.83 |
| K1E | 2.41 |
| K1I | 2.91 |
| K1H | 2.58 |
| I12C | 3.23 |

| Variant | protein stability index |
| --- | --- |
| I12P | 4.56 |
| I12R | 3.74 |
| I12S | 4.36 |
| I12V | 3.28 |
| I12D | 4.77 |
| I12K | 4.45 |
| R24G | 3.57 |
| R24L | 1.69 |
| R24K | 3.46 |
| R24W | 2.13 |
| D4I | 2.1 |
| D4N | 2.6 |
| D4V | 1.61 |
| D4F | 2.25 |
| D4K | 1.98 |
| D4A | 2.13 |
| D4G | 3.18 |
| D4S | 2.38 |
| D4M | 1.99 |
| K7N | 2.86 |
| K7L | 2.37 |
| K7S | 2.46 |
| K7I | 2.16 |
| K7R | 2.5 |

| Variant | protein stability index |
| --- | --- |
| K7H | 2.73 |
| K7G | 3.14 |
| K7Y | 1.86 |
| K7E | 2.47 |
| K7M | 2.48 |
| K7C | 2.63 |
| Q15F | 2.34 |
| Q15S | 2.57 |
| Q15H | 1.97 |
| A20E | 4.03 |
| A20R | 3.09 |
| A20T | 2.52 |
| A20Y | 1.71 |
| A20P | 2.98 |
| A20Q | 2.94 |
| A20K | 3.19 |
| A20D | 3.42 |
| E18S | 2.72 |
| E18K | 1.99 |
| E18H | 2.76 |
| E18F | 2.74 |
| E18I | 2.23 |
| E18V | 2.31 |
| E18M | 2.54 |

| Variant | protein stability index |
| --- | --- |
| M9V | 2.73 |
| M9N | 4.11 |
| M9G | 4.12 |
| M9A | 3.71 |
| M9Y | 3.08 |
| M9W | 2.38 |
| I8Y | 3.23 |
| I8P | 4.5 |
| I8A | 3.06 |
| I8M | 3.42 |
| I8G | 4.54 |
| I8V | 2.99 |
| I8F | 1.64 |
| S2I | 2.11 |
| S2N | 2.41 |
| S2V | 1.9 |
| S2K | 3.06 |
| S2D | 2.85 |
| S2W | 1.86 |
| D17F | 2.14 |
| D17L | 2.29 |
| D17G | 2.72 |
| D17T | 2.27 |
| D17M | 1.51 |

| Variant | protein stability index |
| --- | --- |
| D17C | 1.96 |
| D17S | 2.41 |
| D17V | 2.2 |
| D17H | 2.67 |
| R21K | 2.9 |
| R21S | 2.95 |
| R21D | 2.36 |
| R21L | 2.5 |
| R21N | 2.96 |
| R21G | 3.2 |
| R21P | 3.55 |
| R21M | 2.83 |
| R21F | 2.39 |
| Y16E | 4.37 |
| Y16H | 3.32 |
| Y16R | 3.79 |
| Y16L | 3.65 |
| Y16T | 3.9 |
| Y16F | 2.83 |
| Y16P | 4.47 |
| Y16G | 3.28 |
| Q3R | 2.57 |
| Q3L | 2.49 |
| Q3E | 2.89 |

| Variant | protein stability index |
| --- | --- |
| Q3T | 2.76 |
| Q3K | 2.37 |
| Q3P | 2.75 |
| Q3I | 2.35 |
| Q3D | 3.09 |
| R13Y | 1.75 |
| R13D | 4.35 |
| R13S | 2.73 |
| R13K | 2.92 |
| R13M | 1.83 |
| R13L | 2.3 |
| R13G | 2.8 |
| A14W | 1.97 |
| A14L | 2.73 |
| A14M | 2.67 |
| A14H | 3.16 |
| A14N | 2.73 |
| L19K | 3.74 |
| L19W | 2.38 |
| L19C | 3.08 |
| L19S | 3.71 |
| L19G | 3.44 |
| L19H | 3.39 |

Source: the supplement of paper PMC10567573
